The source of these data is patent US20110207152A1.

In experiment [1] the target is native human plasma gelsolin (human) (UniProt P06396). The experiment can be described thus: sandwich ELISA on human plasma; detection antibody GS2C4 (HRP), capture antibody GF2D6. (In general: ELISA stands for enzyme-linked immunosorbent assay.)
For experiment [2] the target is unchanged. Kind of experiment: sandwich ELISA on human plasma; detection antibody GS2C4 (HRP), capture antibody GN3E9.
Experiment [3] has the same target. The experiment can be described thus: sandwich ELISA on human plasma; detection antibody GS2C4 (HRP), capture antibody GC1C10.
Experiment [4] has as its target F-actin prepared from rabbit muscle actin (rabbit) (UniProt P68135). Kind of experiment: cell-based or functional assay.

Chain of native human plasma gelsolin (P06396 28-782 limits assumed): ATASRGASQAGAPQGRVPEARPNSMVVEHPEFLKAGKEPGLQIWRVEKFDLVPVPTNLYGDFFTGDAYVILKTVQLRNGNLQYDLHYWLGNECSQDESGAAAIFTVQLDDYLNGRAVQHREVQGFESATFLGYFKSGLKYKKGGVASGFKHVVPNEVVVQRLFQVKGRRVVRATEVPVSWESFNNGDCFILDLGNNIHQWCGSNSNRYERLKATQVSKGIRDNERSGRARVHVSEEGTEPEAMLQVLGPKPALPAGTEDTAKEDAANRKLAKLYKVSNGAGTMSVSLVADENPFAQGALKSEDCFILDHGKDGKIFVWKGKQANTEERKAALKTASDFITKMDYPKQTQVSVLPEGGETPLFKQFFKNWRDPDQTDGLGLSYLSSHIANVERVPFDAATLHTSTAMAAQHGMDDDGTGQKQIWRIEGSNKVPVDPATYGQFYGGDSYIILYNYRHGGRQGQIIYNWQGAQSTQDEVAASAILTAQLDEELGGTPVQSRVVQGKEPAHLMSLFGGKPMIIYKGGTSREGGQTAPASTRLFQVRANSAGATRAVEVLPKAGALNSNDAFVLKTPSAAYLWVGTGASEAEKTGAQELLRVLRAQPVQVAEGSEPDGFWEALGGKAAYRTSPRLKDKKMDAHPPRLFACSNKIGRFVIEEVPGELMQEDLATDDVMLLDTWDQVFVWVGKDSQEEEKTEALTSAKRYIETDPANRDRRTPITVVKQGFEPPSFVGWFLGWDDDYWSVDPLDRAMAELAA
Chain of native human plasma gelsolin (human) (P06396 28-782 limits assumed): as above

Consider “commercial anti-human gelsolin antibody GS2C4 (Sigma Chemical Co.)”, for which the OD (sandwich ELISA pairing) amounted to 0.013 OD in experiment [1], 0.025 OD in experiment [2] and 0.014 OD in experiment [3].

Consider “native human plasma gelsolin (from UniProt P06396 28-782)”, for which, in experiment [4], the % of F-actin at 0.1 mg/ml gelsolin (F-actin severing assay) amounted to 35%, the % of F-actin at 0.5 mg/ml gelsolin (F-actin severing assay) was 21% and the % of F-actin at 1.0 mg/ml gelsolin (F-actin severing assay) was 12%.
